PMC12048676

Tests used:
[1] = biological target: RhoGDI1 (Homo sapiens) (UniProt P52565); details: cited from earlier work
[2] = biological target: prenylated A647-Cdc42 (human) (UniProt P60953)
[3] = biological target: geranylgeranylated Cy3-Cdc42 (human) (UniProt P60953)
[4] = biological target: prenylated A647-Cdc42 (human) (UniProt P60953); remark: listed apart in the source
[5] = biological target: biotin-Cy3-Cdc42 (geranylgeranylated) (human) (UniProt P60953); experiment: single-molecule dual-color TIRF microscopy, co-recruitment; 100 pM biotin-Cy3-Cdc42:A647-RhoGDI1 complex, imaged <2 min after dilution, captured on neutravidin-coated biotin-PEG coverslips; 50 mM HEPES pH 7.5, 50 mM NaCl, 2 mM MgCl2; 22 ms per frame; 23 °C
[6] = biological target: prenylated A647-Cdc42 (human) (UniProt P60953); remark: listed apart in the source

Chain of UniProt P52565 (P52565 2-204): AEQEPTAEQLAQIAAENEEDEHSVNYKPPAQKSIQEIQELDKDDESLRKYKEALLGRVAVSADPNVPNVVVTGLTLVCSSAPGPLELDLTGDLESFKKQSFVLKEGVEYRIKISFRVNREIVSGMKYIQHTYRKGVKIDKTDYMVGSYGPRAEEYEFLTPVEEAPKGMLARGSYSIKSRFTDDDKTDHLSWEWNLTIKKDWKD
Chain of Cdc42 (P60953 1-188): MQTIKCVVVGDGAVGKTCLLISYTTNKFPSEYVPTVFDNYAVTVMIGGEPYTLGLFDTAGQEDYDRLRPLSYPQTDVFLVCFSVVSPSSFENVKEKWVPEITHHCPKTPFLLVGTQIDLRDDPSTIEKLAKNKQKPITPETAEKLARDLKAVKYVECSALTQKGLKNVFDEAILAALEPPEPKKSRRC

**Q.** For Cdc42 (from UniProt P60953), which Kd [1] is on record?
**A.** 0.09 nM

**Q.** For “A488-2xwCRIB (from UniProt P42768 201-268; P42768 201-268) (domain or fragment)”, which dwell time of A647-Cdc42 on the membrane inside the GEF-containing region in microfluidic flow-out, with 2xwCRIB [2] is on record?
**A.** 1.4 fold

**Q.** With “RhoGDI1 (unlabeled) (from UniProt P19803 1-204) (natural protein)” as the substance, how does the maximal rate of nucleotide exchange (Cy5-GDP to unlabeled GDP) from Cy5-GDP:Cy3-Cdc42:RhoGDI1 complexes (100 nM) with ITSNcat-His10 pre-bound to PM LUVs, GEF concentration varied [3] read?
**A.** 0.0002 s⁻¹

**Q.** What about the concentration of Cdc42:RhoGDI1 complexes against free Cdc42 needed to reach similar levels of membrane-bound GTPase on SLBs (600 nM vs 5.5 nM) [4] of the same substance?
**A.** 100 fold

**Q.** Which fraction of Cdc42 molecules co-recruited with RhoGDI1 [5] does the source give for “A647-RhoGDI1 (from UniProt P19803 1-204) (natural protein)” here?
**A.** 63%

**Q.** Which patterning index of A647-Cdc42 (inside against outside of GEF-containing areas) after GEF addition in the presence of Atto488-N-WASP [6] does the source give for “full-length Atto488-N-WASP (from UniProt O00401 1-505) (natural protein)” here?
**A.** 1.35
